# Patent EP4782466A1, “FUSION PROTEIN FOR INACTIVATING CORONAVIRUS AND USE THEREOF” (priority 2023, dated 2025)
# Assays:
# Assay in all cases: cell-based or functional assay
# [1] = target: S protein of SARS-CoV-2 Omicron BQ.1 (SARS-CoV-2 BQ.1)
# [2] = target: S protein of SARS-CoV-2 Omicron BA.2.12.1 (SARS-CoV-2 BA.2.12.1)
# [3] = target: S protein of SARS-CoV-2 Omicron BA.4.6 (SARS-CoV-2 BA.4.6)
# [4] = target: S protein of SARS-CoV-2 Gamma (P.1) (SARS-CoV-2 Gamma (P.1))
# [5] = target: S protein of SARS-CoV-2 Omicron BA.1 (SARS-CoV-2 BA.1)
# [6] = target: S protein of SARS-CoV-2 Omicron BA.2 (SARS-CoV-2 BA.2)
# [7] = target: S protein of SARS-CoV-2 Beta (B.1.351) (SARS-CoV-2 Beta (B.1.351))
# [8] = target: S protein of SARS-CoV-2 Omicron BA.5 (SARS-CoV-2 BA.5)
# [9] = target: S protein of SARS-CoV-2 Omicron BA.2.9 (SARS-CoV-2 BA.2.9)
# [10] = target: S protein of SARS-CoV-2 Omicron BA.2.75 (SARS-CoV-2 BA.2.75)
# [11] = target: S protein of SARS-CoV-2 Omicron XBB (SARS-CoV-2 XBB)
# [12] = target: S protein of SARS-CoV-2 Omicron BA.2.2 (SARS-CoV-2 BA.2.2)
# [13] = target: S protein of SARS-CoV-2 Lambda (SARS-CoV-2 Lambda)
# [14] = target: S protein of SARS-CoV-2 Omicron BA.3 (SARS-CoV-2 BA.3)
# [15] = target: S protein of SARS-CoV-2 Alpha (B.1.1.7) (SARS-CoV-2 Alpha (B.1.1.7))
# [16] = target: S protein of SARS-CoV-2 Delta (B.1.617.2) (SARS-CoV-2 Delta (B.1.617.2))
# [17] = target: S protein of SARS-CoV-2 Omicron BF.7 (SARS-CoV-2 BF.7)
substance,measurement,setting,value
ACE2 protein alone (ACE2 peptidase domain alone) (from UniProt Q9BYF1 18-615) (receptor),"EC50, inactivation of pseudovirus (Caco-2, luciferase)",[1],149 nM
same,"IC50, inhibition of pseudovirus infection (Caco-2, luciferase)",[1],21.8 nM
same,"EC50, inactivation of pseudovirus (Caco-2, luciferase)",[2],76.1 nM
same,"IC50, inhibition of pseudovirus infection (Caco-2, luciferase)",[2],10.6 nM
same,"EC50, inactivation of pseudovirus (Caco-2, luciferase)",[3],1160 nM
same,"IC50, inhibition of pseudovirus infection (Caco-2, luciferase)",[3],65.9 nM
same,"EC50, inactivation of pseudovirus (Caco-2, luciferase)",[4],88.5 nM
same,"IC50, inhibition of pseudovirus infection (Caco-2, luciferase)",[4],15.1 nM
same,"EC50, inactivation of pseudovirus (Caco-2, luciferase)",[5],82.2 nM
same,"IC50, inhibition of pseudovirus infection (Caco-2, luciferase)",[5],18.7 nM
same,"EC50, inactivation of pseudovirus (Caco-2, luciferase)",[6],329 nM
same,"IC50, inhibition of pseudovirus infection (Caco-2, luciferase)",[6],12.6 nM
same,"EC50, inactivation of pseudovirus (Caco-2, luciferase)",[7],123 nM
same,"IC50, inhibition of pseudovirus infection (Caco-2, luciferase)",[7],16.1 nM
same,"EC50, inactivation of pseudovirus (Caco-2, luciferase)",[8],336 nM
same,"IC50, inhibition of pseudovirus infection (Caco-2, luciferase)",[8],15.3 nM
same,"EC50, inactivation of pseudovirus (Caco-2, luciferase)",[9],407 nM
same,"IC50, inhibition of pseudovirus infection (Caco-2, luciferase)",[9],7.63 nM
same,"EC50, inactivation of pseudovirus (Caco-2, luciferase)",[10],677 nM
same,"IC50, inhibition of pseudovirus infection (Caco-2, luciferase)",[10],26.5 nM
same,"EC50, inactivation of pseudovirus (Caco-2, luciferase)",[11],212 nM
same,"IC50, inhibition of pseudovirus infection (Caco-2, luciferase)",[11],12.7 nM
same,"EC50, inactivation of pseudovirus (Caco-2, luciferase)",[12],476 nM
same,"IC50, inhibition of pseudovirus infection (Caco-2, luciferase)",[12],11.9 nM
same,"EC50, inactivation of pseudovirus (Caco-2, luciferase)",[13],116 nM
same,"IC50, inhibition of pseudovirus infection (Caco-2, luciferase)",[13],12.8 nM
same,"EC50, inactivation of pseudovirus (Caco-2, luciferase)",[14],52.1 nM
same,"IC50, inhibition of pseudovirus infection (Caco-2, luciferase)",[14],6.51 nM
same,"EC50, inactivation of pseudovirus (Caco-2, luciferase)",[15],243 nM
same,"IC50, inhibition of pseudovirus infection (Caco-2, luciferase)",[15],6.2 nM
same,"EC50, inactivation of pseudovirus (Caco-2, luciferase)",[16],605 nM
same,"IC50, inhibition of pseudovirus infection (Caco-2, luciferase)",[16],4.85 nM
same,"EC50, inactivation of pseudovirus (Caco-2, luciferase)",[17],192 nM
same,"IC50, inhibition of pseudovirus infection (Caco-2, luciferase)",[17],101 nM
AL2E protein (ACE2-linker-EK1 fusion protein with (GGGGS)2 linker) (from UniProt Q9BYF1 18-615),"IC50, inhibition of pseudovirus infection (Caco-2, luciferase)",[1],0.4 nM
same,"IC50, inhibition of pseudovirus infection (Caco-2, luciferase)",[2],0.26 nM
same,"IC50, inhibition of pseudovirus infection (Caco-2, luciferase)",[3],1.03 nM
same,"IC50, inhibition of pseudovirus infection (Caco-2, luciferase)",[4],0.39 nM
same,"IC50, inhibition of pseudovirus infection (Caco-2, luciferase)",[5],0.18 nM
same,"IC50, inhibition of pseudovirus infection (Caco-2, luciferase)",[6],0.16 nM
same,"IC50, inhibition of pseudovirus infection (Caco-2, luciferase)",[7],0.27 nM
same,"IC50, inhibition of pseudovirus infection (Caco-2, luciferase)",[8],0.1 nM
same,"IC50, inhibition of pseudovirus infection (Caco-2, luciferase)",[9],0.43 nM
same,"IC50, inhibition of pseudovirus infection (Caco-2, luciferase)",[10],0.69 nM
same,"IC50, inhibition of pseudovirus infection (Caco-2, luciferase)",[11],0.64 nM
same,"IC50, inhibition of pseudovirus infection (Caco-2, luciferase)",[12],0.4 nM
same,"IC50, inhibition of pseudovirus infection (Caco-2, luciferase)",[13],0.09 nM
same,"IC50, inhibition of pseudovirus infection (Caco-2, luciferase)",[14],0.58 nM
same,"IC50, inhibition of pseudovirus infection (Caco-2, luciferase)",[15],0.22 nM
same,"IC50, inhibition of pseudovirus infection (Caco-2, luciferase)",[16],0.32 nM
same,"IC50, inhibition of pseudovirus infection (Caco-2, luciferase)",[17],0.46 nM
AL5E protein (ACE2-linker-EK1 fusion protein with (GGGGS)5 linker),"EC50, inactivation of pseudovirus (Caco-2, luciferase)",[1],3.73 nM
same,"Fold enhancement of AL5E over ACE2 (EC50, pseudovirus inactivation)",[1],40 fold
same,"Fold enhancement of AL5E over ACE2 (IC50, pseudovirus inhibition)",[1],136 fold
same,"IC50, inhibition of pseudovirus infection (Caco-2, luciferase)",[1],0.16 nM
same,"EC50, inactivation of pseudovirus (Caco-2, luciferase)",[2],1.94 nM
same,"Fold enhancement of AL5E over ACE2 (EC50, pseudovirus inactivation)",[2],39.2 fold
same,"Fold enhancement of AL5E over ACE2 (IC50, pseudovirus inhibition)",[2],176 fold
same,"IC50, inhibition of pseudovirus infection (Caco-2, luciferase)",[2],0.06 nM
same,"EC50, inactivation of pseudovirus (Caco-2, luciferase)",[3],2.28 nM
same,"Fold enhancement of AL5E over ACE2 (EC50, pseudovirus inactivation)",[3],508 fold
same,"Fold enhancement of AL5E over ACE2 (IC50, pseudovirus inhibition)",[3],70.8 fold
same,"IC50, inhibition of pseudovirus infection (Caco-2, luciferase)",[3],0.93 nM
same,"EC50, inactivation of pseudovirus (Caco-2, luciferase)",[4],2.7 nM
same,"Fold enhancement of AL5E over ACE2 (EC50, pseudovirus inactivation)",[4],32.8 fold
same,"Fold enhancement of AL5E over ACE2 (IC50, pseudovirus inhibition)",[4],68.5 fold
same,"IC50, inhibition of pseudovirus infection (Caco-2, luciferase)",[4],0.22 nM
same,"EC50, inactivation of pseudovirus (Caco-2, luciferase)",[5],1.29 nM
same,"Fold enhancement of AL5E over ACE2 (EC50, pseudovirus inactivation)",[5],63.7 fold
same,"Fold enhancement of AL5E over ACE2 (IC50, pseudovirus inhibition)",[5],624 fold
same,"IC50, inhibition of pseudovirus infection (Caco-2, luciferase)",[5],0.03 nM
same,"EC50, inactivation of pseudovirus (Caco-2, luciferase)",[6],3.04 nM
same,"Fold enhancement of AL5E over ACE2 (EC50, pseudovirus inactivation)",[6],108 fold
same,"Fold enhancement of AL5E over ACE2 (IC50, pseudovirus inhibition)",[6],96.8 fold
same,"IC50, inhibition of pseudovirus infection (Caco-2, luciferase)",[6],0.13 nM
same,"EC50, inactivation of pseudovirus (Caco-2, luciferase)",[7],1.57 nM
same,"Fold enhancement of AL5E over ACE2 (EC50, pseudovirus inactivation)",[7],78.4 fold
same,"Fold enhancement of AL5E over ACE2 (IC50, pseudovirus inhibition)",[7],94.5 fold
same,"IC50, inhibition of pseudovirus infection (Caco-2, luciferase)",[7],0.17 nM
same,"EC50, inactivation of pseudovirus (Caco-2, luciferase)",[8],2.27 nM
same,"Fold enhancement of AL5E over ACE2 (EC50, pseudovirus inactivation)",[8],148 fold
same,"Fold enhancement of AL5E over ACE2 (IC50, pseudovirus inhibition)",[8],382 fold
same,"IC50, inhibition of pseudovirus infection (Caco-2, luciferase)",[8],0.04 nM
same,"EC50, inactivation of pseudovirus (Caco-2, luciferase)",[9],8.62 nM
same,"Fold enhancement of AL5E over ACE2 (EC50, pseudovirus inactivation)",[9],47.2 fold
same,"Fold enhancement of AL5E over ACE2 (IC50, pseudovirus inhibition)",[9],95.4 fold
same,"IC50, inhibition of pseudovirus infection (Caco-2, luciferase)",[9],0.08 nM
same,"EC50, inactivation of pseudovirus (Caco-2, luciferase)",[10],1.91 nM
same,"Fold enhancement of AL5E over ACE2 (EC50, pseudovirus inactivation)",[10],354 fold
same,"Fold enhancement of AL5E over ACE2 (IC50, pseudovirus inhibition)",[10],51 fold
same,"IC50, inhibition of pseudovirus infection (Caco-2, luciferase)",[10],0.52 nM
same,"EC50, inactivation of pseudovirus (Caco-2, luciferase)",[11],4.69 nM
same,"Fold enhancement of AL5E over ACE2 (EC50, pseudovirus inactivation)",[11],45.2 fold
same,"Fold enhancement of AL5E over ACE2 (IC50, pseudovirus inhibition)",[11],74.5 fold
same,"IC50, inhibition of pseudovirus infection (Caco-2, luciferase)",[11],0.17 nM
same,"EC50, inactivation of pseudovirus (Caco-2, luciferase)",[12],3.35 nM
same,"Fold enhancement of AL5E over ACE2 (EC50, pseudovirus inactivation)",[12],142 fold
same,"Fold enhancement of AL5E over ACE2 (IC50, pseudovirus inhibition)",[12],59.3 fold
same,"Fold of AL5E over ACE2 (IC50, live BA.2.2 virus inhibition)",[12],44 fold
same,"IC50, inhibition of pseudovirus infection (Caco-2, luciferase)",[12],0.2 nM
same,"EC50, inactivation of pseudovirus (Caco-2, luciferase)",[13],2.75 nM
same,"Fold enhancement of AL5E over ACE2 (EC50, pseudovirus inactivation)",[13],42 fold
same,"Fold enhancement of AL5E over ACE2 (IC50, pseudovirus inhibition)",[13],427 fold
same,"IC50, inhibition of pseudovirus infection (Caco-2, luciferase)",[13],0.03 nM
same,"EC50, inactivation of pseudovirus (Caco-2, luciferase)",[14],2.26 nM
same,"Fold enhancement of AL5E over ACE2 (EC50, pseudovirus inactivation)",[14],23.1 fold
same,"Fold enhancement of AL5E over ACE2 (IC50, pseudovirus inhibition)",[14],32.5 fold
same,"IC50, inhibition of pseudovirus infection (Caco-2, luciferase)",[14],0.2 nM
same,"EC50, inactivation of pseudovirus (Caco-2, luciferase)",[15],8.72 nM
same,"Fold enhancement of AL5E over ACE2 (EC50, pseudovirus inactivation)",[15],27.9 fold
same,"Fold enhancement of AL5E over ACE2 (IC50, pseudovirus inhibition)",[15],47.7 fold
same,"IC50, inhibition of pseudovirus infection (Caco-2, luciferase)",[15],0.13 nM
same,"EC50, inactivation of pseudovirus (Caco-2, luciferase)",[16],8.21 nM
same,"Fold enhancement of AL5E over ACE2 (EC50, pseudovirus inactivation)",[16],73.7 fold
same,"Fold enhancement of AL5E over ACE2 (IC50, pseudovirus inhibition)",[16],30.3 fold
same,"IC50, inhibition of pseudovirus infection (Caco-2, luciferase)",[16],0.16 nM
same,"EC50, inactivation of pseudovirus (Caco-2, luciferase)",[17],1.99 nM
same,"Fold enhancement of AL5E over ACE2 (EC50, pseudovirus inactivation)",[17],96.3 fold
same,"Fold enhancement of AL5E over ACE2 (IC50, pseudovirus inhibition)",[17],362 fold
same,"IC50, inhibition of pseudovirus infection (Caco-2, luciferase)",[17],0.28 nM
